Laboratory results taken from patent US20240116985A1 (published 2024).
Each block holds one binder with its values, some of them ahead of it. Starred links: 1 amine or outer side, 2 acyl side, 3 side chain; linkers in the order of their positions; H or OH if unused. Positions of bridges follow the written chain, without caps; N, C: chain ends. Non-standard residues stand in square brackets, D forms with d. Primed or numbered codes have the meaning given here. (4CF3PhAc)GAbu = (S)-2-amino-4-(N-(carboxymethyl)-2-(4-(trifluoromethyl)phenyl)acetamido)butanoic acid, O=C(Cc1ccc(C(F)(F)F)cc1)N(CC[C@H](N[*:1])C(=O)[*:2])CC(=O)[*:3]; (MeMorphBz)GAbu = (S)-2-amino-4-(N-(carboxymethyl)-4-(morpholinomethyl)benzamido)butanoic acid, O=C(c1ccc(CN2CCOCC2)cc1)N(CC[C@H](N[*:1])C(=O)[*:2])CC(=O)[*:3]; PyrS2″ = (S)-3-amino-1-((pent-4-en-1-yloxy)carbonyl)pyrrolidine-3-carboxylic acid (stapling residue), C=CCCCOC(=O)N1CC[C@@](N[*:1])(C(=O)[*:2])C1; B5(16) = 2-amino-2-(pent-4-en-1-yl)hept-6-enoic acid = 2,2-bis(4-pentenyl)glycine (stitching residue), C=CCCCC(CCCC=C)(N[*:1])C(=O)[*:2]; TfeGA = (S)-2-amino-3-((carboxymethyl)(2,2,2-trifluoroethyl)amino)propanoic acid, O=C([C@H](CN(CC(=O)[*:3])CC(F)(F)F)N[*:1])[*:2]; PyrS2 = (S)-3-amino-1-((pent-4-en-1-yloxy)carbonyl)pyrrolidine-3-carboxylic acid, C=CCCCOC(=O)N1CC[C@@](N[*:1])(C(=O)[*:2])C1; (Pic)GAbu = (S)-2-amino-4-(N-(carboxymethyl)picolinamido)butanoic acid, O=C(c1ccccn1)N(CC[C@H](N[*:1])C(=O)[*:2])CC(=O)[*:3]; B5(9) = 2-amino-2-(pent-4-en-1-yl)hept-6-enoic acid (2,2-bis(4-pentenyl)glycine), C=CCCCC(CCCC=C)(N[*:1])C(=O)[*:2]; B5(22) = 2-amino-2-(pent-4-en-1-yl)hept-6-enoic acid (two alkene side chains), C=CCCCC(CCCC=C)(N[*:1])C(=O)[*:2]; HypEs5 = (2R,4S)-4-(pent-4-enoyloxy)pyrrolidine-2-carboxylic acid, C=CCCC(=O)O[C@H]1C[C@H](C(=O)[*:2])N([*:1])C1; B5(3) = 2,2-bis(4-pentenyl)glycine (stitching residue), C=CCCCC(CCCC=C)(N[*:1])C(=O)[*:2]; B5 = 2-amino-2-(pent-4-en-1-yl)hept-6-enoic acid, C=CCCCC(CCCC=C)(N[*:1])C(=O)[*:2]; Phe(3-COOH) = N[C@@H](Cc1cccc(C(=O)O)c1)C(=O)O; Phe(3-F) = N[C@@H](Cc1cccc(F)c1)C(=O)O; Phe(4-F) = N[C@@H](Cc1ccc(F)cc1)C(=O)O; Bta = N[C@@H](Cc1csc2ccccc12)C(=O)O; αAllylPro = C=CC[C@@]1(C(=O)O)CCCN1; tBuAla = CC(C)(C)C[C@H](N)C(=O)O; 3Thi = N[C@@H](Cc1ccsc1)C(=O)O; Cit = NC(=O)NCCC[C@H](N)C(=O)O; S8 = C=CCCCCCC[C@](C)(N)C(=O)O

How the values were obtained:
[1] = biological target: T1, B-cat-Halo (beta-catenin HaloTag construct expressed in HEK293 cells) (UniProt P35222 1-781); experiment: cell-based or functional assay
T1 sequence (looked up): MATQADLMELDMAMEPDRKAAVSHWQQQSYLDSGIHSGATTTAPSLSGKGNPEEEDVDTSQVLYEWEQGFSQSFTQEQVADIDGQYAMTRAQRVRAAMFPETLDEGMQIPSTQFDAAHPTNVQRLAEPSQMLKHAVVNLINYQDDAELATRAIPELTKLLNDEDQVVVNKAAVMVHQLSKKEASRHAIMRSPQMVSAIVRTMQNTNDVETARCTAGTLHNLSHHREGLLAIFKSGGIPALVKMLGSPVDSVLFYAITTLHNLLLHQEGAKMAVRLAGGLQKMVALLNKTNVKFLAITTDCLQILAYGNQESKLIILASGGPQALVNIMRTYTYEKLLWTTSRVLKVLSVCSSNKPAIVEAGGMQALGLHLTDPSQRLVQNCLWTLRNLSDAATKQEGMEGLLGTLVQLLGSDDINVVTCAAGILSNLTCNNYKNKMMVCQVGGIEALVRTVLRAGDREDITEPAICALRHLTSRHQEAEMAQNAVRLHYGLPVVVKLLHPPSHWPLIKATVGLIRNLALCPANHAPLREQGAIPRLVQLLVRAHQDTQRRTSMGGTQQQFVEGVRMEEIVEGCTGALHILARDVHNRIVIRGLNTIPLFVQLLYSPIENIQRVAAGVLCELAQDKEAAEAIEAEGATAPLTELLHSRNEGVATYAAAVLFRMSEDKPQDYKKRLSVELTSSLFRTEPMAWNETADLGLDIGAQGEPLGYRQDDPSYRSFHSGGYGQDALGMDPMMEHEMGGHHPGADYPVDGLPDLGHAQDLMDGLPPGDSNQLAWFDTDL

B-cat-Halo = biological target: T2, B-cat-Halo (UniProt P35222 1-781); experiment: cell-based or functional assay
T2 sequence (looked up): T1 sequence (looked up)

[2] = biological target: T3, full-length beta-Catenin (Uniprot ID P35222) (Homo sapiens (Human), UniProt P35222 1-781); experiment: fluorescence polarization competition; peptide titrated against 10 nM full-length beta-catenin + 10 nM 5FAM-TCF4(10-53) probe
T3 construct: Said to be full-length in the fluorescence polarization assay; also called bCat; B-Catenin
T3 sequence: T1 sequence (looked up)
Description: The plate was incubated protected from light for 60 minutes at 20° C. prior to read. Reads were performed on a CLARIOstar plate reader (BMG Labtech) in duplicate, and data were fitted to a 1:1 binding model with hill slope using an in-house script. All provided concentrations are final concentrations.

NanoBRET Abs IC50 [1]: 4.8 µM
B1: I-802 (peptide)
peptide: Ac-[αAllylPro]D[tBuAla][B5]DDAAFL[PyrS2][3Thi][Bta]H-NH2
modifications: staple 1-4, 4-11

NanoBRET Abs IC50 (B-cat-Halo): 5.9 µM
B2: I-2247 (peptide)
peptide: Ac-[αAllylPro]D[tBuAla][B5(22)]D[(Pic)GAbu]AAFL[PyrS2][3Thi][Bta]Q-NH2
modifications: staple 1-4, 4-11

NanoBRET Abs IC50 (B-cat-Halo): 3.7 µM
B3: I-2262 (peptide)
peptide: Ac-[αAllylPro]D[tBuAla][B5(3)]D[Phe(3-COOH)]AA[Phe(4-F)]L[PyrS2″][3Thi][Bta]A-NH2
modifications: staple 1-4, 4-11

NanoBRET Abs IC50 (B-cat-Halo): 6.4 µM
B4: I-2261 (peptide)
peptide: Ac-[αAllylPro]D[tBuAla][B5(3)]D[Phe(3-COOH)]AAFL[PyrS2″][Phe(3-F)][Bta]A-NH2
modifications: staple 1-4, 4-11

EC50 [2]: 5000 nM
B5: I-637 (peptide)
peptide: XDIXDEAAFQXFXP
modifications: not fully specified; Ac-PL3-Asp-Ile-B5-Asp-Glu-Ala-Ala-Phe-Gln-S8-Phe-BztA-Pro-NH2; N-terminal acetyl, C-terminal amide; non-natural PL3 (1), B5 (4), S8 (11), BztA (13); staples PL3-B5 and B5-S8 by olefin metathesis
notes: Stapled peptide; Earlier-eluting staple isomer composition

EC50 [2]: 171 nM
B6: I-635 (peptide)
peptide: Ac-[αAllylPro]DI[B5(16)]DEAAFQ[S8]F[Bta]F-NH2
modifications: staple 1-4, 4-11
notes: Stapled peptide

EC50 [2]: 198 nM
B7: I-636 (peptide)
peptide: Ac-[αAllylPro]DI[B5(16)]DEAAFQ[S8]F[Bta]Y-NH2
modifications: staple 1-4, 4-11
notes: Stapled peptide

EC50 [2]: 958 nM
B8: I-643 (peptide)
peptide: Ac-[αAllylPro]DI[B5(9)]DEAAFQ[S8]F[Bta]W-NH2
modifications: staple 1-4, 4-11
notes: as for B5

EC50 [2]: 122 nM
B9: I-641 (peptide)
peptide: XDIXDEAAFQXFXT
modifications: not fully specified; Ac-PL3-Asp-Ile-B5-Asp-Glu-Ala-Ala-Phe-Gln-S8-Phe-BztA-Thr-NH2; N-terminal acetyl, C-terminal amide; non-natural PL3 (1), B5 (4), S8 (11), BztA (13); staples PL3-B5 and B5-S8 by olefin metathesis
notes: as for B5

EC50 [2]: 88 nM
B10: I-633 (peptide)
peptide: Ac-[αAllylPro]DI[B5(16)]DEAAFQ[S8]F[Bta]R-NH2
modifications: staple 1-4, 4-11
notes: Stapled peptide

EC50 [2]: 808 nM
B11: I-644 (peptide)
peptide: Ac-[αAllylPro]DI[B5(9)]DEAAFQ[S8]F[Bta]W-NH2
modifications: staple 1-4, 4-11
notes: Stapled peptide; Later-eluting staple isomer composition

EC50 [2]: 425 nM
B12: I-634 (peptide)
peptide: Ac-[αAllylPro]DI[B5(16)]DEAAFQ[S8]F[Bta]L-NH2
modifications: staple 1-4, 4-11
notes: Stapled peptide

EC50 [2]: 118 nM
B13: I-642 (peptide)
peptide: XDIXDEAAFQXFXT
modifications: not fully specified; Ac-PL3-Asp-Ile-B5-Asp-Glu-Ala-Ala-Phe-Gln-S8-Phe-BztA-Thr-NH2; N-terminal acetyl, C-terminal amide; non-natural PL3 (1), B5 (4), S8 (11), BztA (13); staples PL3-B5 and B5-S8 by olefin metathesis
notes: as for B11

EC50 [2]: 109 nM
B14: I-639 (peptide)
peptide: XDIXDEAAFQXFXS
modifications: not fully specified; Ac-PL3-Asp-Ile-B5-Asp-Glu-Ala-Ala-Phe-Gln-S8-Phe-BztA-Ser-NH2; N-terminal acetyl, C-terminal amide; non-natural PL3 (1), B5 (4), S8 (11), BztA (13); staples PL3-B5 and B5-S8 by olefin metathesis
notes: as for B5

EC50 [2]: 87 nM
B15: I-640 (peptide)
peptide: XDIXDEAAFQXFXS
modifications: not fully specified; Ac-PL3-Asp-Ile-B5-Asp-Glu-Ala-Ala-Phe-Gln-S8-Phe-BztA-Ser-NH2; N-terminal acetyl, C-terminal amide; non-natural PL3 (1), B5 (4), S8 (11), BztA (13); staples PL3-B5 and B5-S8 by olefin metathesis
notes: as for B11

EC50 [2]: 1140 nM
B16: I-614 (peptide)
peptide: XDIXDRAAFQXFXQ
modifications: not fully specified; Ac-PL3-Asp-Ile-B5-Asp-Arg-Ala-Ala-Phe-Gln-S8-Phe-BztA-Gln-NH2; N-terminal acetyl, C-terminal amide; non-natural PL3 (1), B5 (4), S8 (11), BztA (13); staples PL3-B5 and B5-S8 by olefin metathesis
notes: as for B11

NanoBRET Abs IC50 (B-cat-Halo): 21.5 µM
B17: I-2248 (peptide)
peptide: Ac-[αAllylPro]D[tBuAla][B5(22)]D[(MeMorphBz)GAbu]AAFL[PyrS2][3Thi][Bta]Q-NH2
modifications: staple 1-4, 4-11

NanoBRET Abs IC50 [1]: 21.6 µM
B18: I-806 (peptide)
peptide: Ac-[αAllylPro]D[tBuAla][B5(3)]DDAAF[Cit][PyrS2″][3Thi][Bta]H-NH2
modifications: staple 1-4, 4-11

NanoBRET Abs IC50 (B-cat-Halo): 25.5 µM
B19: I-2264 (peptide)
peptide: Ac-[HypEs5]D[tBuAla][B5(3)]D[TfeGA]AAFL[PyrS2″][3Thi][Bta]Q-NH2
modifications: staple 1-4, 4-11

NanoBRET Abs IC50 (B-cat-Halo): 12.9 µM
B20: I-2246 (peptide)
peptide: Ac-[αAllylPro]D[tBuAla][B5(22)]D[(4CF3PhAc)GAbu]AAFL[PyrS2][3Thi][Bta]Q-NH2
modifications: staple 1-4, 4-11
